system: Escherichia coli TOP10; assay: shrunken log2 fold change of peptide-encoding DNA abundance (4.5 h post-induction vs induction); higher = less antimicrobial activity (less host growth inhibition); settings: time post-induction: 4.5 h; library: site-saturation at positions 5, 18, 19, 20
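Also: peptides expressed intracellularly from a pBAD plasmid library in pooled LB shake-flask culture, induced with 0.3% L-arabinose, DNA abundance read by NGS, three biological replicates, DESeq2 with apeglm shrinkage.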

Compared with RRIRERPPRLPRPRPRPMCFPRP, RRIRIRPPRLPRPRPRPVCWPRP is higher in “shrunken log2 fold change” value: -0.176 for the first, 0.32 for the second.

Compared with RRIRCRPPRLPRPRPRPVSMPRP, RRIRCRPPRLPRPRPRPVNFPRP is lower in “shrunken log2 fold change” value: -0.0967 for the first, -0.484 for the second.

RRIRTRPPRLPRPRPRPIVDPRP and RRIRQRPPRLPRPRPRPKSYPRP are within 0.2 log units of each other in “shrunken log2 fold change” value: 0.0147 for the first, -0.0861 for the second.

RRIRLRPPRLPRPRPRPDQGPRP and RRIRERPPRLPRPRPRPDKEPRP are within 0.2 log units of each other in “shrunken log2 fold change” value: -0.034 for the first, -0.0205 for the second.

First: RRIRWRPPRLPRPRPRPQYNPRP
Second: RRIRQRPPRLPRPRPRPDYKPRP
The “shrunken log2 fold change” value of the first is lower: -0.554 for the first, -0.0788 for the second.

First: RRIRQRPPRLPRPRPRPRPCPRP
Second: RRIRQRPPRLPRPRPRPWGIPRP
The “shrunken log2 fold change” value of the first is higher: 0.409 for the first, 0.0274 for the second.

Going from RRIRKRPPRLPRPRPRPVQTPRP to RRIRERPPRLPRPRPRPIYCPRP, the “shrunken log2 fold change” value falls from 0.914 to -0.143.

Compared with RRIRQRPPRLPRPRPRPWKHPRP, RRIRMRPPRLPRPRPRPRYAPRP is higher in “shrunken log2 fold change” value: -0.0075 for the first, 0.467 for the second.

RRIRPRPPRLPRPRPRPDQEPRP and RRIRIRPPRLPRPRPRPLEYPRP are within 0.2 log units of each other in “shrunken log2 fold change” value: -0.151 for the first, -0.293 for the second.

RRIRCRPPRLPRPRPRPTKQPRP and RRIRTRPPRLPRPRPRPFMIPRP are within 0.2 log units of each other in “shrunken log2 fold change” value: -0.0825 for the first, -0.0265 for the second.

First: RRIRKRPPRLPRPRPRPVCSPRP
Second: RRIRCRPPRLPRPRPRPDVIPRP
The “shrunken log2 fold change” value of the first is higher: 0.0361 for the first, -0.405 for the second.

RRIRCRPPRLPRPRPRPYFWPRP and RRIRPRPPRLPRPRPRPKWMPRP are within 0.2 log units of each other in “shrunken log2 fold change” value: -0.347 for the first, -0.158 for the second.

RRIRERPPRLPRPRPRPGAFPRP and RRIRHRPPRLPRPRPRPRRQPRP are within 0.2 log units of each other in “shrunken log2 fold change” value: -0.0461 for the first, 0.0256 for the second.

Going from RRIRFRPPRLPRPRPRPTSNPRP to RRIRKRPPRLPRPRPRPNYTPRP, the “shrunken log2 fold change” value rises from -0.617 to -0.281.

Going from RRIRWRPPRLPRPRPRPRIVPRP to RRIRNRPPRLPRPRPRPARVPRP, the “shrunken log2 fold change” value rises from 0.0526 to 0.574.

First: RRIRDRPPRLPRPRPRPCREPRP
Second: RRIRHRPPRLPRPRPRPLHCPRP
The “shrunken log2 fold change” value of the first is higher: 0.123 for the first, -0.519 for the second.

RRIRIRPPRLPRPRPRPSSEPRP and RRIRARPPRLPRPRPRPNNTPRP are within 0.2 log units of each other in “shrunken log2 fold change” value: -0.299 for the first, -0.423 for the second.

RRIRIRPPRLPRPRPRPHLCPRP and RRIRSRPPRLPRPRPRPAETPRP are within 0.2 log units of each other in “shrunken log2 fold change” value: 0.0475 for the first, 0.114 for the second.

RRIRVRPPRLPRPRPRPDGVPRP and RRIRARPPRLPRPRPRPVSLPRP are within 0.2 log units of each other in “shrunken log2 fold change” value: -0.0176 for the first, -0.0174 for the second.

RRIRDRPPRLPRPRPRPMANPRP and RRIRSRPPRLPRPRPRPFICPRP are within 0.2 log units of each other in “shrunken log2 fold change” value: -0.0338 for the first, -0.163 for the second.

Going from RRIRVRPPRLPRPRPRPFSVPRP to RRIRVRPPRLPRPRPRPITVPRP, the “shrunken log2 fold change” value falls from -0.299 to -1.15.

Compared with RRIRNRPPRLPRPRPRPNQLPRP, RRIRARPPRLPRPRPRPDSEPRP is higher in “shrunken log2 fold change” value: -0.228 for the first, 0.481 for the second.

Going from RRIRKRPPRLPRPRPRPVDEPRP to RRIRYRPPRLPRPRPRPVRCPRP, the “shrunken log2 fold change” value falls from 0.358 to 0.0877.

First: RRIRPRPPRLPRPRPRPARYPRP
Second: RRIRNRPPRLPRPRPRPLTFPRP
The “shrunken log2 fold change” value of the first is higher: 0.19 for the first, -0.0233 for the second.

Going from RRIRLRPPRLPRPRPRPGKLPRP to RRIRYRPPRLPRPRPRPGCVPRP, the “shrunken log2 fold change” value falls from -0.00186 to -0.202.

First: RRIRERPPRLPRPRPRPADDPRP
Second: RRIRTRPPRLPRPRPRPLDTPRP
The “shrunken log2 fold change” value of the first is higher: 0.000221 for the first, -0.566 for the second.

Going from RRIRVRPPRLPRPRPRPAQMPRP to RRIRDRPPRLPRPRPRPEAAPRP, the “shrunken log2 fold change” value rises from 0.126 to 1.84.

Going from RRIRFRPPRLPRPRPRPKLRPRP to RRIRMRPPRLPRPRPRPRQEPRP, the “shrunken log2 fold change” value rises from 0.147 to 1.13.

Compared with RRIRERPPRLPRPRPRPTVIPRP, RRIRFRPPRLPRPRPRPDYEPRP is lower in “shrunken log2 fold change” value: -0.0209 for the first, -0.407 for the second.

RRIRQRPPRLPRPRPRPQGGPRP and RRIRTRPPRLPRPRPRPWSTPRP are within 0.2 log units of each other in “shrunken log2 fold change” value: 0.00902 for the first, -0.14 for the second.

First: RRIRFRPPRLPRPRPRPDYHPRP
Second: RRIRQRPPRLPRPRPRPRKIPRP
The “shrunken log2 fold change” value of the first is lower: -0.935 for the first, -0.064 for the second.

First: RRIRMRPPRLPRPRPRPNLYPRP
Second: RRIRKRPPRLPRPRPRPAKDPRP
The “shrunken log2 fold change” value of the first is lower: -0.00588 for the first, 0.247 for the second.

First: RRIRTRPPRLPRPRPRPPENPRP
Second: RRIRARPPRLPRPRPRPSMVPRP
The “shrunken log2 fold change” value of the first is higher: 0.201 for the first, -0.263 for the second.

RRIRERPPRLPRPRPRPAVTPRP and RRIRCRPPRLPRPRPRPLKVPRP are within 0.2 log units of each other in “shrunken log2 fold change” value: -0.13 for the first, -0.284 for the second.

First: RRIRGRPPRLPRPRPRPVAMPRP
Second: RRIRVRPPRLPRPRPRPKFTPRP
The “shrunken log2 fold change” value of the first is higher: 1.02 for the first, -0.0442 for the second.

Compared with RRIRSRPPRLPRPRPRPSKMPRP, RRIRNRPPRLPRPRPRPIKMPRP is lower in “shrunken log2 fold change” value: -0.0555 for the first, -0.404 for the second.

RRIRCRPPRLPRPRPRPMLCPRP and RRIRVRPPRLPRPRPRPIDFPRP are within 0.2 log units of each other in “shrunken log2 fold change” value: 0.0786 for the first, -0.0311 for the second.

RRIRHRPPRLPRPRPRPDEKPRP and RRIRFRPPRLPRPRPRPKLQPRP are within 0.2 log units of each other in “shrunken log2 fold change” value: -0.00141 for the first, -0.0358 for the second.

Going from RRIRDRPPRLPRPRPRPYVEPRP to RRIRVRPPRLPRPRPRPGRAPRP, the “shrunken log2 fold change” value rises from -0.125 to 0.685.

First: RRIRVRPPRLPRPRPRPIIPPRP
Second: RRIRHRPPRLPRPRPRPLLDPRP
The “shrunken log2 fold change” value of the first is lower: -0.36 for the first, -0.117 for the second.

First: RRIRSRPPRLPRPRPRPKPWPRP
Second: RRIRIRPPRLPRPRPRPGKGPRP
The “shrunken log2 fold change” value of the first is higher: 0.463 for the first, -0.185 for the second.

Going from RRIRYRPPRLPRPRPRPQNMPRP to RRIRVRPPRLPRPRPRPAHEPRP, the “shrunken log2 fold change” value rises from -1.33 to 0.205.

RRIRPRPPRLPRPRPRPTEQPRP and RRIRRRPPRLPRPRPRPRDKPRP are within 0.2 log units of each other in “shrunken log2 fold change” value: 0.307 for the first, 0.126 for the second.

RRIRRRPPRLPRPRPRPKMMPRP and RRIRSRPPRLPRPRPRPLPTPRP are within 0.2 log units of each other in “shrunken log2 fold change” value: 0.296 for the first, 0.446 for the second.

RRIRERPPRLPRPRPRPVDLPRP and RRIRQRPPRLPRPRPRPAKTPRP are within 0.2 log units of each other in “shrunken log2 fold change” value: -0.103 for the first, -0.0724 for the second.

Going from RRIRDRPPRLPRPRPRPPPGPRP to RRIRERPPRLPRPRPRPVQDPRP, the “shrunken log2 fold change” value falls from 0.774 to -0.0228.

First: RRIRHRPPRLPRPRPRPHPYPRP
Second: RRIRLRPPRLPRPRPRPNMKPRP
The “shrunken log2 fold change” value of the first is lower: -0.462 for the first, -0.173 for the second.

RRIRIRPPRLPRPRPRPHVEPRP and RRIRARPPRLPRPRPRPWSCPRP are within 0.2 log units of each other in “shrunken log2 fold change” value: -0.227 for the first, -0.045 for the second.

RRIRVRPPRLPRPRPRPGYCPRP and RRIRVRPPRLPRPRPRPHMDPRP are within 0.2 log units of each other in “shrunken log2 fold change” value: -0.307 for the first, -0.449 for the second.

First: RRIRERPPRLPRPRPRPHTQPRP
Second: RRIRNRPPRLPRPRPRPPNFPRP
The “shrunken log2 fold change” value of the first is lower: -0.362 for the first, -0.0236 for the second.

First: RRIRCRPPRLPRPRPRPKYRPRP
Second: RRIRQRPPRLPRPRPRPCWLPRP
The “shrunken log2 fold change” value of the first is lower: -0.326 for the first, 0.0947 for the second.

First: RRIRDRPPRLPRPRPRPPNFPRP
Second: RRIRIRPPRLPRPRPRPTMKPRP
The “shrunken log2 fold change” value of the first is higher: 0.0198 for the first, -0.309 for the second.

Compared with RRIRSRPPRLPRPRPRPVYLPRP, RRIRDRPPRLPRPRPRPIIVPRP is higher in “shrunken log2 fold change” value: -0.519 for the first, 0.0216 for the second.

Compared with RRIRPRPPRLPRPRPRPRYHPRP, RRIRLRPPRLPRPRPRPRTIPRP is higher in “shrunken log2 fold change” value: -0.224 for the first, 0.0584 for the second.

Going from RRIRPRPPRLPRPRPRPCQTPRP to RRIRMRPPRLPRPRPRPTSFPRP, the “shrunken log2 fold change” value rises from 0.0185 to 0.347.

RRIRQRPPRLPRPRPRPDAVPRP and RRIRQRPPRLPRPRPRPHYGPRP are within 0.2 log units of each other in “shrunken log2 fold change” value: -0.0012 for the first, 0.0133 for the second.

Going from RRIRKRPPRLPRPRPRPREMPRP to RRIRARPPRLPRPRPRPGDAPRP, the “shrunken log2 fold change” value rises from -0.0629 to 0.711.

Going from RRIRERPPRLPRPRPRPIARPRP to RRIRCRPPRLPRPRPRPCFFPRP, the “shrunken log2 fold change” value rises from -0.0237 to 0.392.

First: RRIRVRPPRLPRPRPRPYIDPRP
Second: RRIRTRPPRLPRPRPRPTHWPRP
The “shrunken log2 fold change” value of the first is lower: -0.372 for the first, 0.987 for the second.

First: RRIRERPPRLPRPRPRPNCMPRP
Second: RRIRLRPPRLPRPRPRPYSMPRP
The “shrunken log2 fold change” value of the first is higher: -0.526 for the first, -0.924 for the second.

Compared with RRIRERPPRLPRPRPRPYHVPRP, RRIRPRPPRLPRPRPRPPWLPRP is higher in “shrunken log2 fold change” value: 0.0464 for the first, 0.57 for the second.

Going from RRIRERPPRLPRPRPRPSNLPRP to RRIRPRPPRLPRPRPRPATVPRP, the “shrunken log2 fold change” value rises from -0.302 to -0.0314.

With RRIRWRPPRLPRPRPRPCLQPRP the “shrunken log2 fold change” value was -0.21.
